The source of these data is article PMC11821526.

Experiment [1] has as its target pep3 …[X]-CONH2, X = Leu. As to the kind of experiment: fluorescence polarisation; FBXO31–SKP1 complex (0–5 µM) titrated to fluorescein-labelled peptide (2–10 nM); 25 mM HEPES, 150 mM NaCl, pH 7.5; room temperature, 30 min; one-site fit, n = 3 parallel experiments.
The target of experiment [2] is pep3 …[X]-CONH2, X = Glu. The description is as above.
Experiment [3] addresses pep3 …[X]-CONH2, X = Arg. The description is as above.
For experiment [4], the target named is pep3 …[X]-CONH2, X = Ile. The description is as above.
For experiment [5], the target named is pep3 …[X]-CONH2, X = Lys. The description is as above.
The target of experiment [6] is pep3 …[X]-CONH2, X = Gly. Described as above.
In experiment [7] the target is pep3 …[X]-CONH2, X = Tyr. The experiment is described as above.
The target of experiment [8] is pep3 …[X]-CONH2, X = Ala. The experiment is described as above.
The target in experiment [9] is pep3 …[X]-CONH2, X = Trp. The description is as above.
For experiment [10], the target named is pep3 …[X]-CONH2, X = Ser. Described as above.
The target in experiment [11] is pep3 …[X]-CONH2, X = Thr. The experiment is described as above.
The target in experiment [12] is pep3 …[X]-CONH2, X = Cys. The description is as above.
The target of experiment [13] is pep3 …[X]-CONH2, X = Val. Described as above.
The target of experiment [14] is pep3 …[X]-CONH2, X = His. The experiment is described as above.
The target of experiment [15] is pep3 …[X]-CONH2, X = Pro. Described as above.
Experiment [16] concerns the target pep3 …[X]-CONH2, X = Met. The description is as above.
The target in experiment [17] is pep3 with terminal Gln amide (…-CONH2). As to the kind of experiment: fluorescence polarisation; FBXO31–SKP1 complex (0–5 µM) titrated against fluorescein-labelled peptides (2–10 nM); 25 mM HEPES, 150 mM NaCl, pH 7.5, room temperature, 30 min; one-site fit; constants of the highest affinity probes only approximate.
Experiment [18] concerns the target pep3 with terminal Phe amide (…-CONH2). The experiment is described as above.
Experiment [19] deals with pep3 with terminal Asn amide (…-CONH2). Described as above.
In experiment [20] the target is pep3 with terminal Asp amide (…-CONH2). The description is as above.

On to “FBXO31–SKP1 complex (StrepII-FBXO31.1(∆1–65) with SKP1(A2P,∆38–43,∆71–82)) (from UniProt Q5XUX0 66-539; P63208 1-163)”, for which the Kd worked out at 41.4 nM in experiment [1]; 103 nM in experiment [2]; 71 nM in [3]; 32.1 nM in [4]; 93.8 nM in experiment [5]; 137 nM in experiment [6]. The Kd in experiment [7] was determined as 25.9 nM; in experiment [8] it was 54.4 nM; in [9], 38.2 nM; in experiment [10], 49.6 nM; in experiment [11], 42 nM; in experiment [12], 19.9 nM. The Kd in experiment [13] was 43.7 nM; in [14] it was 13.2 nM; in experiment [15], 58.2 nM; in experiment [16] it was 21 nM.

Consider “recombinant FBXO31–SKP1 complex (wild type) (from UniProt Q5XUX0 66-539; P63208 1-163)”, for which the Kd in [17] is 55 nM; in experiment [18], 6 nM; in [19], 24 nM; in experiment [20], 304 nM.
